Measured values from article PMC7905944 (Science signaling, 2020).

Molecular target: the molecule itself
Assay: cross-linking

B1: endogenous LGR5 of LoVo cells (receptor, human (endogenous in LoVo), UniProt O75473 22-907, looked up)
chain: GSSPRSGVLLRGCPTHCHCEPDGRMLLRVDCSDLGLSELPSNLSVFTSYLDLSMNNISQLLPNPLPSLRFLEELRLAGNALTYIPKGAFTGLYSLKVLMLQNNQLRHVPTEALQNLRSLQSLRLDANHISYVPPSCFSGLHSLRHLWLDDNALTEIPVQAFRSLSALQAMTLALNKIHHIPDYAFGNLSSLVVLHLHNNRIHSLGKKCFDGLHSLETLDLNYNNLDEFPTAIRTLSNLKELGFHSNNIRSIPEKAFVGNPSLITIHFYDNPIQFVGRSAFQHLPELRTLTLNGASQITEFPDLTGTANLESLTLTGAQISSLPQTVCNQLPNLQVLDLSYNLLEDLPSFSVCQKLQKIDLRHNEIYEIKVDTFQQLLSLRSLNLAWNKIAIIHPNAFSTLPSLIKLDLSSNLLSSFPITGLHGLTHLKLTGNHALQSLISSENFPELKVIEMPYAYQCCAFGVCENAYKISNQWNKGDNSSMDDLHKKDAGMFQAQDERDLEDFLLDFEEDLKALHSVQCSPSPGPFKPCEHLLDGWLIRIGVWTIAVLALTCNALVTSTVFRSPLYISPIKLLIGVIAAVNMLTGVSSAVLAGVDAFTFGSFARHGAWWENGVGCHVIGFLSIFASESSVFLLTLAALERGFSVKYSAKFETKAPFSSLKVIILLCALLALTMAAVPLLGGSKYGASPLCLPLPFGEPSTMGYMVALILLNSLCFLMMTIAYTKLYCNLDKGDLENIWDCSMVKHIALLLFTNCILNCPVAFLSFSSLINLTFISPEVIKFILLVVVPLPACLNPLLYILFNPHFKEDLVSLRKQTYVWTRSKHPSLMSINSDDVEKQSCDSTQALVTFTSSSITYDLPPSSVPSPAYPVTESCHLSSVAFVPCL
  stoichiometry N: 2
